Results reported in patent US20260092097A1 (published 2026).

Target: T1, p53 peptide on HLA-A*02:01 (human)
T1 peptide: STPPPGTRV
Assay: binding, other

B1: c149scTCR (TCR, V domains shown)
Valpha: QKVTQTQTSISVMEKTTVTMDCVYETRDSSYFLFWYKQTASGEIVFLIRQDSYKKENATEGHYSLNFQKPKSSIGLIITATQIEDSAVYFCAMRDTNAYKVIFGKGTHLHVLP
Vbeta: EAAVTQSPRSKVAVTGGKVTLSCHQTNNHDYMYWYRQDTGHGLRLIHYSYVADSTEKGDIPDGYKASRPSQENFSLILELASLSQTAVYFCASSPHSYEQYFGPGTRLTVL
binding result: recognises
